Data taken from PMC2883962.

Target: prostate apoptosis response protein 4 (Par-4), endogenous in native colon cancer cells (human (endogenous in HT29 and SW480)) (UniProt Q96IZ0)
Assay: co-IP; Par-4 immunoprecipitated from lysates of native HT29 cells treated for 24 h with vehicle or 12.5 or 25 μM ISC-4 (AKT inhibitor); immunoprecipitates immunoblotted with PKA, NFκB p50 and 14-3-3 antibodies

Sequence of UniProt Q96IZ0 (Q96IZ0 whole entry): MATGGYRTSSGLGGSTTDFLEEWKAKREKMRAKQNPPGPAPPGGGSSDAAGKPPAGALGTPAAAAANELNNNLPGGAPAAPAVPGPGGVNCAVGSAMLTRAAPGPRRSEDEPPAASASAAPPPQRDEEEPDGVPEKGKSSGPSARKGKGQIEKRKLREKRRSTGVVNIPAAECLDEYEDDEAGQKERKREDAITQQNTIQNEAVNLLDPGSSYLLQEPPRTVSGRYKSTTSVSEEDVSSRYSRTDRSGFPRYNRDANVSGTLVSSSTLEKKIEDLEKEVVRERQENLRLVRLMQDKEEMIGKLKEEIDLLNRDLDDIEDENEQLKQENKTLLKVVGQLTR
Sequence of 14-3-3 (P63104 whole entry): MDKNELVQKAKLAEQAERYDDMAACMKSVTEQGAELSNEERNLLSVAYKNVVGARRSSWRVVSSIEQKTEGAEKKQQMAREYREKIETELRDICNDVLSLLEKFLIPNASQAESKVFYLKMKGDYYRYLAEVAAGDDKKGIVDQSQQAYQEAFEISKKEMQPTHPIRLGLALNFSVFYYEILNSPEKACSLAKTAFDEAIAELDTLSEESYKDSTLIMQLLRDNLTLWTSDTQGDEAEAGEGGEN

- fold decrease of Par-4 binding with ISC-4 against vehicle: 3 fold
Substance: 14-3-3 (from UniProt P63104 1-245) (natural protein)
